The values that follow are results of earlier work, collected in PMC3894449.

As usually defined, the Kd is the equilibrium constant for the complex coming apart.

Series [1] concerns the target IL-2Ralpha (Homo sapiens) (UniProt P01589).
For series [2], the target named is IL-15Ralpha (Homo sapiens) (UniProt Q13261).
Sequence of UniProt Q13261 (Q13261 31-205): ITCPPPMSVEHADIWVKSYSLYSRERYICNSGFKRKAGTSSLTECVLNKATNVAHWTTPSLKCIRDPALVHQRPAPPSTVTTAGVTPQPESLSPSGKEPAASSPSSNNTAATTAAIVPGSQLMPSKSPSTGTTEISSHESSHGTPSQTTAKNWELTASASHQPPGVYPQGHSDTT

Sequence of UniProt P01589 (P01589 22-240): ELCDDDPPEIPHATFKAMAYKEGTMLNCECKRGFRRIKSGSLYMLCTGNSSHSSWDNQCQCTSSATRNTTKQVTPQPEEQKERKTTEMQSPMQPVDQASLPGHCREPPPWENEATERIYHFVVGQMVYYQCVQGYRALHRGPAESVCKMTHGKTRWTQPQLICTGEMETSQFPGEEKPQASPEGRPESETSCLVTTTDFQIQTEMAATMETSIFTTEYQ

IL-2 (from UniProt P60568): the Kd in series [1] is 20 nM.
Regarding IL-15 (from UniProt P40933), the Kd in series [2] was 0.05 nM.
